# Target: human FGFR1c together with human beta-Klotho (KLB), stably expressed on CHO Flp-In cells (human) (UniProt P11362)
# Test: cell-based or functional assay
# Sequence of human FGFR1c together with human beta-Klotho (KLB), stably expressed on CHO Flp-In cells (human) (P11362 22-822, chain 1 of 2): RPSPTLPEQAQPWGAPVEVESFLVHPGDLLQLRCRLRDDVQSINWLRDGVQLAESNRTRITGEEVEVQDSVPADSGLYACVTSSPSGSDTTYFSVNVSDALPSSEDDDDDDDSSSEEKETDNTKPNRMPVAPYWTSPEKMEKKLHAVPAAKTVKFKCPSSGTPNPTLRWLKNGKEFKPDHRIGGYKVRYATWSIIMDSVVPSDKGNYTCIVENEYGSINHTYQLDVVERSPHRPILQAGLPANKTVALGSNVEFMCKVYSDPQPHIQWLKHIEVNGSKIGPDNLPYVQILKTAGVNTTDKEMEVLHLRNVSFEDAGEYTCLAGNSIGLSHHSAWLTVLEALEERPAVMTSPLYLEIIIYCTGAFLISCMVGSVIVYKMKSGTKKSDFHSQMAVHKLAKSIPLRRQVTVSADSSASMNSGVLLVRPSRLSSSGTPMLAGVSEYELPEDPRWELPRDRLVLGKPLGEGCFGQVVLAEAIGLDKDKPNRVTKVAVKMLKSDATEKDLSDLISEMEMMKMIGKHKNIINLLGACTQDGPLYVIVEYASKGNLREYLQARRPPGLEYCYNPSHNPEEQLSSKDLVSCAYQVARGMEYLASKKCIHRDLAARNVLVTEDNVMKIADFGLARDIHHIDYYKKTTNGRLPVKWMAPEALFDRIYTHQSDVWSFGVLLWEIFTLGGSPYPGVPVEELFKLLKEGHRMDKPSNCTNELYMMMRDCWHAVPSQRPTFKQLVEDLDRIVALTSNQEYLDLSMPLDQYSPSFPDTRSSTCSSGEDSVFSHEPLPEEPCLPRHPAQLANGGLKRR
# Sequence of human FGFR1c together with human beta-Klotho (KLB), stably expressed on CHO Flp-In cells (human) (Q86Z14 whole entry, chain 2 of 2, further chain): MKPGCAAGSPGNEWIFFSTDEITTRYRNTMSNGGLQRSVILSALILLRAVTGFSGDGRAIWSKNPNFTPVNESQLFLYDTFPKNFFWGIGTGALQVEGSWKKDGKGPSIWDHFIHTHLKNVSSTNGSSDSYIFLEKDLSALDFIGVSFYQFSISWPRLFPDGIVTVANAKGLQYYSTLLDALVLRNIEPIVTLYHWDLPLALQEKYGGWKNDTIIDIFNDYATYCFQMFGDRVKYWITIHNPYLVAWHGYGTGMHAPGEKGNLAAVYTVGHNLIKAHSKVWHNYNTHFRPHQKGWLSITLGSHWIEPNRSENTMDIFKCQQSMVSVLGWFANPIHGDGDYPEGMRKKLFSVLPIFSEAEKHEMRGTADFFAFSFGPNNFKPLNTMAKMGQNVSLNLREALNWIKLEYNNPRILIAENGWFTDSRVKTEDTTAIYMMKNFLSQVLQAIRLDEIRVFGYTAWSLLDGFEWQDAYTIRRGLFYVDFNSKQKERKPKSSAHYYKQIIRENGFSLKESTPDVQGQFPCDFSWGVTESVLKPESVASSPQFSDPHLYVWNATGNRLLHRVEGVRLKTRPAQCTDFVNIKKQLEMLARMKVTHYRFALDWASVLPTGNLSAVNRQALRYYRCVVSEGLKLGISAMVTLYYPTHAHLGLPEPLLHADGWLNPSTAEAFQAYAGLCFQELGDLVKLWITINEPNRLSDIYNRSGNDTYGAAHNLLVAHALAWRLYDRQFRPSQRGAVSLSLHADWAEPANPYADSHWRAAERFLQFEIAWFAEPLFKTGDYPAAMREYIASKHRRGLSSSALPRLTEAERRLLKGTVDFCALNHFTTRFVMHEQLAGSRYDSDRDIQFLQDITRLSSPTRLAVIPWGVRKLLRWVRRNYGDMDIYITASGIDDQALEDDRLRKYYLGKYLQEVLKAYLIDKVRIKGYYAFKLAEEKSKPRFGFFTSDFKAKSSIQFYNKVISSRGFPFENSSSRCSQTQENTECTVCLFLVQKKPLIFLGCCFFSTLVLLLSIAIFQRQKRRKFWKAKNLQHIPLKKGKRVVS
# Sequence of FGF21 G198 deleted (SEQ ID NO: 29) (Q9NSA1 other isoform, or with tags, fused parts or gaps): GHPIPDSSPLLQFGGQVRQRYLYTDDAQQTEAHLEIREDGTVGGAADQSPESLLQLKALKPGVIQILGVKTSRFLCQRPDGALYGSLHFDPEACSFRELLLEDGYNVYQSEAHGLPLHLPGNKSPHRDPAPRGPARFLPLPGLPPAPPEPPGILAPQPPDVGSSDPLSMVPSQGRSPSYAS
# Sequence of FGF21 P185-P186 deleted (SEQ ID NO: 59) (Q9NSA1 other isoform, or with tags, fused parts or gaps): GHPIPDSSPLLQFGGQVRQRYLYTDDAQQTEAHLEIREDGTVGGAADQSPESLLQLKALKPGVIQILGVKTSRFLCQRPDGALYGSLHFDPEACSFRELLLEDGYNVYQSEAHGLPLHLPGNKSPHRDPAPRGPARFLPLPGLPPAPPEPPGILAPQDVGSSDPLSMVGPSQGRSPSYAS
# Sequence of FGF21 GGGGS inserted between G198 and P199 (SEQ ID NO: 15) (Q9NSA1 other isoform, or with tags, fused parts or gaps): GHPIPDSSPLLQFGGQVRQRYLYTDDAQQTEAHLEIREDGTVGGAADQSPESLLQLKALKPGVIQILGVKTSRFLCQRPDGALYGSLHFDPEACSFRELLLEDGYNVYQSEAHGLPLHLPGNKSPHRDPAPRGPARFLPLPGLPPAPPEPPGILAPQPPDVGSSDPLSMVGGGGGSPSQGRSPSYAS
# Sequence of FGF21 D187 deleted (SEQ ID NO: 57) (Q9NSA1 other isoform, or with tags, fused parts or gaps): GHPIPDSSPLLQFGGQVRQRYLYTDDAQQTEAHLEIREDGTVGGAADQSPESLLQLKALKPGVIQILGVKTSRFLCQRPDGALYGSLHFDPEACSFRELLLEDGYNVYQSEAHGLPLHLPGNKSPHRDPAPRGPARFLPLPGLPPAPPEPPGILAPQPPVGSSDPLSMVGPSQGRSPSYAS
# Sequence of FGF21 G198-P199 deleted (SEQ ID NO: 30) (Q9NSA1 other isoform, or with tags, fused parts or gaps): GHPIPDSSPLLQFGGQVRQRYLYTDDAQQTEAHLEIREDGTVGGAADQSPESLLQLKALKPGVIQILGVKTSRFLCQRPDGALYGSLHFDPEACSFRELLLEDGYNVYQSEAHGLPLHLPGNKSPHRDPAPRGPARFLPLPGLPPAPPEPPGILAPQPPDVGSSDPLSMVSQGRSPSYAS
# Sequence of FGF21 G198 deleted, S200 deleted (SEQ ID NO: 74) (Q9NSA1 other isoform, or with tags, fused parts or gaps): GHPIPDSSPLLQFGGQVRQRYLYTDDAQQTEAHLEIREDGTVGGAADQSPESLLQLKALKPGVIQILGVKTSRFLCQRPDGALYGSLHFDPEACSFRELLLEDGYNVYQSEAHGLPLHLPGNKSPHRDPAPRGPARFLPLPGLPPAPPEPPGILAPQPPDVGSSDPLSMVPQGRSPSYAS
# Sequence of FGF21 M196 deleted, S201 deleted (SEQ ID NO: 70) (Q9NSA1 other isoform, or with tags, fused parts or gaps): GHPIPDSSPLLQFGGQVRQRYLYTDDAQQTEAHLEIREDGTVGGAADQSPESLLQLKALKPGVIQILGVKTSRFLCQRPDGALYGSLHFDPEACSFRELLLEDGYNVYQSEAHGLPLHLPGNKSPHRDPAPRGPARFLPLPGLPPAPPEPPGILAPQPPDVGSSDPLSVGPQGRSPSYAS
# Sequence of FGF21 Q201 deleted (SEQ ID NO: 62) (Q9NSA1 other isoform, or with tags, fused parts or gaps): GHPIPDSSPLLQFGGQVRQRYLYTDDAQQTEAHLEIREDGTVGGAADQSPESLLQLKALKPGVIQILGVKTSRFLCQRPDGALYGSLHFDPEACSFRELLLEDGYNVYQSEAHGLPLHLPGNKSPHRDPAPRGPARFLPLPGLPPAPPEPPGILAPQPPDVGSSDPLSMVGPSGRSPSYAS
# Sequence of FGF21 P205 deleted (SEQ ID NO: 66) (Q9NSA1 other isoform, or with tags, fused parts or gaps): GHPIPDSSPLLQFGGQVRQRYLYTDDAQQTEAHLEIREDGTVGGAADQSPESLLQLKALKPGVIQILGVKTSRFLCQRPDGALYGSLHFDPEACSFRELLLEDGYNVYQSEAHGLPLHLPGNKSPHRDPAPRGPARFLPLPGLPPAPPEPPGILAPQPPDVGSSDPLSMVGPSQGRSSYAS
# Sequence of FGF21 P186 deleted (SEQ ID NO: 58) (Q9NSA1 other isoform, or with tags, fused parts or gaps): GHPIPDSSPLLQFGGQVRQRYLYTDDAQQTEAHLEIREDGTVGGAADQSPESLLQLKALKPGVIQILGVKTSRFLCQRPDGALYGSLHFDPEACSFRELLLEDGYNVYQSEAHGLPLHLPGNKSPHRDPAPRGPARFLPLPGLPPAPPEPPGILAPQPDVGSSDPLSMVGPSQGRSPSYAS
# Sequence of FGF21 G202 deleted (SEQ ID NO: 63) (Q9NSA1 other isoform, or with tags, fused parts or gaps): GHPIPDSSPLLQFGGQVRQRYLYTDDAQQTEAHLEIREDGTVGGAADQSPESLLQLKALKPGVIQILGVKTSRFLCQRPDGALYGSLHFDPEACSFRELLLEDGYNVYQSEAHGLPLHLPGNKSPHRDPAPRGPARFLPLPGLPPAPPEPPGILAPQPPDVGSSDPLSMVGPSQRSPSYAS
# Sequence of FGF21 P199 deleted (SEQ ID NO: 11) (Q9NSA1 other isoform, or with tags, fused parts or gaps): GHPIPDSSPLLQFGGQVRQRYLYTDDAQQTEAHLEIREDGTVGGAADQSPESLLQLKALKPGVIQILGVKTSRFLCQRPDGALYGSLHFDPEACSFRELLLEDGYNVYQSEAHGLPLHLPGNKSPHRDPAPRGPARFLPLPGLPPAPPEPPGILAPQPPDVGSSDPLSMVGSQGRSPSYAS
# Sequence of FGF21 Q184 deleted (SEQ ID NO: 60) (Q9NSA1 other isoform, or with tags, fused parts or gaps): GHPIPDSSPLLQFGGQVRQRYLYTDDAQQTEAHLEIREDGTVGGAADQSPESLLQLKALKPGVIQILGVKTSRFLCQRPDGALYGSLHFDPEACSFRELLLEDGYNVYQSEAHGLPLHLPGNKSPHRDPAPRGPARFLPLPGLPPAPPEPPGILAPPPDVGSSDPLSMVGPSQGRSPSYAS
# Sequence of FGF21 G189 deleted (SEQ ID NO: 55) (Q9NSA1 other isoform, or with tags, fused parts or gaps): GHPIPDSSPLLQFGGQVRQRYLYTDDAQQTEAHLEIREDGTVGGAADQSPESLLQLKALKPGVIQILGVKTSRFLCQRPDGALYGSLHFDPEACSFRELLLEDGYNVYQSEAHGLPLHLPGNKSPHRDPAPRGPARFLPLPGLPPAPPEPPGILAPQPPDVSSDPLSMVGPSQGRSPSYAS
row,Substance,pERK ICW EC50 [nmol/L]
1,"FGF21 A54C, P161C (SEQ ID NO: 109) (from UniProt Q9NSA1 29-209) (ligand)",6.38
2,"FGF21 A59C, A73C (SEQ ID NO: 105) (from UniProt Q9NSA1 29-209) (ligand)",19.2
3,"FGF21 A59C, G71C (SEQ ID NO: 77) (from UniProt Q9NSA1 29-209) (ligand)",2.15
4,"FGF21 A59C, G71C, G198Y (SEQ ID NO: 37) (from UniProt Q9NSA1 29-209) (ligand)",0.75
5,"FGF21 A59C, G71C, P199 deleted (SEQ ID NO: 36) (from UniProt Q9NSA1 29-209) (ligand)",1.16
6,"FGF21 A72C, S79C (SEQ ID NO: 87) (from UniProt Q9NSA1 29-209) (ligand)",11.8
7,"FGF21 A72C, S79C, G108C, L142C (SEQ ID NO: 89) (from UniProt Q9NSA1 29-209) (ligand)",8.24
8,"FGF21 A120C, A139C (SEQ ID NO: 114) (from UniProt Q9NSA1 29-209) (ligand)",22
9,"FGF21 D130C, Y132C (SEQ ID NO: 83) (from UniProt Q9NSA1 29-209) (ligand)",49.4
10,FGF21 D187 deleted (SEQ ID NO: 57) (from UniProt Q9NSA1 29-209) (ligand),86.1
11,"FGF21 E62C, A72C (SEQ ID NO: 106) (from UniProt Q9NSA1 29-209) (ligand)",2.03
12,"FGF21 E62C, E78C (SEQ ID NO: 101) (from UniProt Q9NSA1 29-209) (ligand)",2.44
13,"FGF21 E62C, S79C (SEQ ID NO: 102) (from UniProt Q9NSA1 29-209) (ligand)",0.55
14,"FGF21 E78C, T98C (SEQ ID NO: 118) (from UniProt Q9NSA1 29-209) (ligand)",9.22
15,"FGF21 G67C, R100C (SEQ ID NO: 112) (from UniProt Q9NSA1 29-209) (ligand)",23.3
16,"FGF21 G108C, L142C (SEQ ID NO: 86) (from UniProt Q9NSA1 29-209) (ligand)",1.48
17,"FGF21 G108C, L142C, G198Y (SEQ ID NO: 41) (from UniProt Q9NSA1 29-209) (ligand)",0.55
18,"FGF21 G108C, L142C, P199 deleted (SEQ ID NO: 40) (from UniProt Q9NSA1 29-209) (ligand)",0.9
19,FGF21 G189 deleted (SEQ ID NO: 55) (from UniProt Q9NSA1 29-209) (ligand),76.2
20,FGF21 G198 deleted (SEQ ID NO: 29) (from UniProt Q9NSA1 29-209) (ligand),41.6
21,"FGF21 G198 deleted, P199F (SEQ ID NO: 31) (from UniProt Q9NSA1 29-209) (ligand)",2.1
22,"FGF21 G198 deleted, P199L (SEQ ID NO: 32) (from UniProt Q9NSA1 29-209) (ligand)",4.8
23,"FGF21 G198 deleted, P199L, S200N (SEQ ID NO: 33) (from UniProt Q9NSA1 29-209) (ligand)",9.44
24,"FGF21 G198 deleted, S200 deleted (SEQ ID NO: 74) (from UniProt Q9NSA1 29-209) (ligand)",77.8

row,Substance,pERK ICW EC50 [nmol/L]
1,FGF21 G198-P199 deleted (SEQ ID NO: 30) (from UniProt Q9NSA1 29-209) (ligand),14.5
2,FGF21 G198D (SEQ ID NO: 17) (from UniProt Q9NSA1 29-209) (ligand),4.94
3,FGF21 G198E (SEQ ID NO: 16) (from UniProt Q9NSA1 29-209) (ligand),4.53
4,FGF21 G198K (SEQ ID NO: 19) (from UniProt Q9NSA1 29-209) (ligand),1.81
5,"FGF21 G198P, P199G (SEQ ID NO: 24) (from UniProt Q9NSA1 29-209) (ligand)",10.8
6,FGF21 G198R (SEQ ID NO: 18) (from UniProt Q9NSA1 29-209) (ligand),1.15
7,FGF21 G198Y (SEQ ID NO: 20) (from UniProt Q9NSA1 29-209) (ligand),0.68
8,FGF21 G202 deleted (SEQ ID NO: 63) (from UniProt Q9NSA1 29-209) (ligand),8.18
9,FGF21 GGGGS inserted between G198 and P199 (SEQ ID NO: 15) (from UniProt Q9NSA1 29-209) (ligand),3.07
10,"FGF21 H60C, S79C (SEQ ID NO: 75) (from UniProt Q9NSA1 29-209) (ligand)",67.1
11,"FGF21 H140C, L142C (SEQ ID NO: 82) (from UniProt Q9NSA1 29-209) (ligand)",2.27
12,"FGF21 H145C, P161C (SEQ ID NO: 120) (from UniProt Q9NSA1 29-209) (ligand)",6.51
13,"FGF21 I63C, G112C (SEQ ID NO: 79) (from UniProt Q9NSA1 29-209) (ligand)",5.05
14,"FGF21 I63C, T98C (SEQ ID NO: 111) (from UniProt Q9NSA1 29-209) (ligand)",87.6
15,"FGF21 L80C, V96C (SEQ ID NO: 119) (from UniProt Q9NSA1 29-209) (ligand)",17.9
16,"FGF21 L81C, G95C (SEQ ID NO: 121) (from UniProt Q9NSA1 29-209) (ligand)",46.5
17,"FGF21 L146C, A162C (SEQ ID NO: 35) (from UniProt Q9NSA1 29-209) (ligand)",8.28
18,"FGF21 M196 deleted, S201 deleted (SEQ ID NO: 70) (from UniProt Q9NSA1 29-209) (ligand)",165
19,"FGF21 M196V, V197M (SEQ ID NO: 13) (from UniProt Q9NSA1 29-209) (ligand)",26.7
20,"FGF21 P77C, K97C (SEQ ID NO: 117) (from UniProt Q9NSA1 29-209) (ligand)",8.76
21,"FGF21 P143C, A162C (SEQ ID NO: 116) (from UniProt Q9NSA1 29-209) (ligand)",17.6
22,FGF21 P185-P186 deleted (SEQ ID NO: 59) (from UniProt Q9NSA1 29-209) (ligand),21.1
23,FGF21 P186 deleted (SEQ ID NO: 58) (from UniProt Q9NSA1 29-209) (ligand),0.87
24,FGF21 P199 deleted (SEQ ID NO: 11) (from UniProt Q9NSA1 29-209) (ligand),2.31

row,Substance,pERK ICW EC50 [nmol/L]
1,FGF21 P199G (SEQ ID NO: 21) (from UniProt Q9NSA1 29-209) (ligand),1.65
2,"FGF21 P199Q, Q201P (SEQ ID NO: 10) (from UniProt Q9NSA1 29-209) (ligand)",1.76
3,FGF21 P199R (SEQ ID NO: 22) (from UniProt Q9NSA1 29-209) (ligand),0.95
4,"FGF21 P199S, S200P (SEQ ID NO: 9) (from UniProt Q9NSA1 29-209) (ligand)",1.72
5,FGF21 P199T (SEQ ID NO: 23) (from UniProt Q9NSA1 29-209) (ligand),1.66
6,FGF21 P205 deleted (SEQ ID NO: 66) (from UniProt Q9NSA1 29-209) (ligand),27.4
7,"FGF21 Q55C, G148C (SEQ ID NO: 93) (from UniProt Q9NSA1 29-209) (ligand)",0.48
8,"FGF21 Q55C, G148C, N149-R159 deleted and replaced by GGSGGS (SEQ ID NO: 95) (from UniProt Q9NSA1 29-209) (ligand)",7.27
9,"FGF21 Q55C, G148C, N149-R159 deleted and replaced by GSGS (SEQ ID NO: 94) (from UniProt Q9NSA1 29-209) (ligand)",8.19
10,"FGF21 Q55C, N149C, G198Y (SEQ ID NO: 47) (from UniProt Q9NSA1 29-209) (ligand)",0.58
11,"FGF21 Q55C, N149C, P199 deleted (SEQ ID NO: 46) (from UniProt Q9NSA1 29-209) (ligand)",1.7
12,"FGF21 Q55C, P147C, G198Y (SEQ ID NO: 45) (from UniProt Q9NSA1 29-209) (ligand)",3.6
13,"FGF21 Q55C, P147C, P199 deleted (SEQ ID NO: 44) (from UniProt Q9NSA1 29-209) (ligand)",10
14,"FGF21 Q55G, Q56C, L146C (SEQ ID NO: 96) (from UniProt Q9NSA1 29-209) (ligand)",163
15,"FGF21 Q55G, Q56C, L146C, P147-R159 deleted and replaced by GGSGGS (SEQ ID NO: 98) (from UniProt Q9NSA1 29-209) (ligand)",155
16,"FGF21 Q55G, Q56C, L146C, P147-R159 deleted and replaced by GSGS (SEQ ID NO: 97) (from UniProt Q9NSA1 29-209) (ligand)",114
17,"FGF21 Q82C, L94C (SEQ ID NO: 122) (from UniProt Q9NSA1 29-209) (ligand)",5.57
18,"FGF21 Q104C, H140C (SEQ ID NO: 108) (from UniProt Q9NSA1 29-209) (ligand)",21.9
19,"FGF21 Q104C, S137C (SEQ ID NO: 107) (from UniProt Q9NSA1 29-209) (ligand)",1.83
20,FGF21 Q184 deleted (SEQ ID NO: 60) (from UniProt Q9NSA1 29-209) (ligand),2.26
21,FGF21 Q201 deleted (SEQ ID NO: 62) (from UniProt Q9NSA1 29-209) (ligand),1.91
22,"FGF21 R47C, P174C (SEQ ID NO: 90) (from UniProt Q9NSA1 29-209) (ligand)",14.5
23,"FGF21 R100C, L114C (SEQ ID NO: 103) (from UniProt Q9NSA1 29-209) (ligand)",48.2
24,"FGF21 R124C, Q136C (SEQ ID NO: 115) (from UniProt Q9NSA1 29-209) (ligand)",22.6
